Substitutions are numbered along the chain they refer to.
B1: humanized 6G425 F(ab)-9 (humanized 6G4V11 Fab) (Fab, V domains shown)
VH: EVQLVQSGGGLVQPGGSLRLSCAASGYSFSSHYMHWVRQAPGKGLEWVGYIDPSNGETTYNQKFKGRFTLSRDNSKNTAYLQMNSLRAEDTAVYYCARGDYRYNGDWFFDVWGQGTLVTVSS
VL: DIQMTQSPSSLSASVGDRVTITCRSSQSLVHGIGNTYLHWYQQKPGKAPKLLIYKVSNRFSGVPSRFSGSGSGTDFTLTISSLQPEDFATYYCSQSTHVPLTFGQGTKVEIKR
B2: 6G4V11N35A Fab' modified with 40 kD linear PEG-maleimide (Fab, V domains shown)
VH: B1 VH
VL: B1 VL with N35A
modifications: 40 kD linear methoxy-PEG-maleimide on the free cysteine in the hinge region
B3: 6G4V11N35A Fab (Fab, V domains shown)
VH: B1 VH
VL: B1 VL with N35A
B4: humanized 6G425 F(ab)-8 (Fab, V domains shown)
VH: B1 VH with Q6E, R38K
VL: B1 VL
B5: full length 6G4V11N35A IgG1 (antibody, V domains shown, not shown: a dimerising Fc or GST)
VH: B1 VH
VL: B1 VL with N35A
B6: 6G4V11N35A F(ab')2 (GCN4 leucine zipper construct) (other)
light: DIQMTQSPSSLSASVGDRVTITCRSSQSLVHGIGATYLHWYQQKPGKAPKLLIYKVSNRFSGVPSRFSGSGSGTDFTLTISSLQPEDFATYYCSQSTHVPLTFGQGTKVEIKRTVAAPSVFIFPPSDEQLKSGTASVVCLLNNFYPREAKVQWKVDNALQSGNSQESVTEQDSKDSTYSLSSTLTLSKADYEKHKVYACEVTHQGLSSPVTKSFNRGEC
heavy: not shown

Key:
Assay in all cases: cell-based or functional assay
human monomeric IL-8 = human monomeric IL-8 (human)
rhesus IL-8 = molecular target: T1, rhesus IL-8 (rhesus, UniProt P67813 23-101, limits assumed)
T1 sequence (looked up): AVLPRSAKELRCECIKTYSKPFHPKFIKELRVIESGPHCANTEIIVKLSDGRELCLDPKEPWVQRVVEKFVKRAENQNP

[1] = molecular target: T2, recombinant human IL-8, (ser-IL-8)72 (human, UniProt P10145 28-99)
T2 sequence (looked up): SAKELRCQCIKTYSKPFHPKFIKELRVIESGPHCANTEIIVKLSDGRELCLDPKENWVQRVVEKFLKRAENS

rabbit IL-8 = molecular target: T3, rabbit IL-8 (rabbit, UniProt P19874 23-101, limits assumed)
T3 sequence (looked up): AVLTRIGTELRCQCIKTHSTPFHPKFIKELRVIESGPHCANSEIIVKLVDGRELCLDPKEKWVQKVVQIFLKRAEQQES

| Binder | IC50, IL-8 mediated neutrophil chemotaxis (rhesus IL-8) [nM] | IC50, IL-8 mediated PMN chemotaxis [1] [nM] | average IC50, human IL-8 mediated neutrophil chemotaxis [1] [nM] | average IC50, IL-8 mediated neutrophil chemotaxis (human monomeric IL-8) [nM] | average IC50, IL-8 mediated neutrophil chemotaxis (rabbit IL-8) [nM] | also measured |
| --- | --- | --- | --- | --- | --- | --- |
| B1 | ~22 |  |  |  |  | IC50, IL-8 mediated neutrophil chemotaxis (human monomeric IL-8): ~15 nM |
| B2 |  | 3.7 |  |  |  |  |
| B3 |  | 0.8 | 2.7 | 1 | 5 |  |
| B4 | 10 |  |  |  |  | IC50, IL-8 mediated neutrophil chemotaxis [1]: 12 nM |
| B5 |  |  |  |  |  | IC50, IL-8 mediated human neutrophil chemotaxis [1]: 4 nM; IC50, IL-8 mediated human neutrophil chemotaxis (rabbit IL-8): 4 nM |
| B6 |  |  | 1.5 | 1 | 4 |  |
